Experimental data taken from patent US20250304650A1.
Numbering of substitutions follows the chain as printed. Numbers in names are those of the source. Where “and” joins values, the source holds several entries; their conditions need not be identical. Identical values can stand only once. Each block holds one binder with its values, some of them ahead of it.

Experiments:
[1] = target: feline FcRn (FCN-F82W3, Acrobiosystems) (feline); assay: SPR Carterra, IgG coupled, pH 6.0
[2] = target: feline FcRn (IgG receptor FcRn large subunit p51 with feline beta-2-microglobulin) (feline); assay: SPR Biacore 8K, Fc captured by SASA tag on BSA, pH 6.0

Kd [1]: 0.0021 µM
koff [1]: 0.00568 s⁻¹
kon [1]: 2.75e+06 M⁻¹ s⁻¹
B1: anti-NGF feline IgG1a, Fc variant S434Y, S254R (antibody, part only; not given: anti-NGF variable domains, light chain, not shown: another chain or arm of the molecule; small tags and cut ends)
Fc: PPEMLGGPSIFIFPPKPKDTLSIRRTPEVTCLVVDLGPDDSDVQITWFVDNTQVYTAKTSPREEQFNSTYRVVSVLPILHQDWLKGKEFKCKVNSKSLPSPIERTISKAKGQPHEPQVYVLPPAQEELSRNKVSVTCLIKSFHPPDIAVEWEITGQPEPENNYRTTPPQLDSDGTYFVYSKLSVDRSHWQRGNTYTCSVSHEALHYHHTQKSLTQSPGK

Kd [1]: 0.1 µM
koff [1]: 0.0445 s⁻¹
kon [1]: 445000 M⁻¹ s⁻¹
B2: anti-NGF feline IgG1a, Fc variant S426L, S428H (antibody, part only; not given: anti-NGF variable domains, light chain, not shown: another chain or arm of the molecule; small tags and cut ends)
Fc: B1 Fc with R24S, S198L, S200H, Y206S

Kd [1]: 0.0096 µM
koff [1]: 0.0109 s⁻¹
kon [1]: 1.14e+06 M⁻¹ s⁻¹
B3: anti-NGF feline IgG1a, Fc variant S428L, N389c-R (antibody, part only; not given: anti-NGF variable domains, light chain, not shown: another chain or arm of the molecule; small tags and cut ends)
Fc: B1 Fc with R24S, N161R, S200L, Y206S

Kd [1]: 0.0353 µM
koff [1]: 0.00927 s⁻¹
kon [1]: 262000 M⁻¹ s⁻¹
B4: anti-NGF feline IgG1a, Fc variant S252R, A378E (antibody, part only; not given: Anti-NGF variable domains, not shown: another chain or arm of the molecule; small tags and cut ends)
Fc: B1 Fc with S22R, R24S, A148E, Y206S

Kd [1]: 0.0098 µM
koff [1]: 0.0095 s⁻¹
kon [1]: 974000 M⁻¹ s⁻¹
B5: anti-NGF feline IgG1a, Fc variant S252Y (antibody, part only; not given: Anti-NGF variable domains, not shown: another chain or arm of the molecule; small tags and cut ends)
Fc: B1 Fc with S22Y, R24S, Y206S

Kd [2]: 0.47 µM and 0.492 µM
koff [2]: 0.0957 s⁻¹ and 0.101 s⁻¹
kon [2]: 203000 M⁻¹ s⁻¹ and 205000 M⁻¹ s⁻¹
B6: feline IgG1a Fc variant S252F (CH2-CH3) with SASA tag (Fc fusion, part only; not given: SASA tag, not shown: another chain or arm of the molecule; small tags and cut ends)
Fc: B1 Fc with S22F, R24S, Y206S

Kd [1]: 0.007 µM
koff [1]: 0.00516 s⁻¹
kon [1]: 740000 M⁻¹ s⁻¹
B7: anti-NGF feline IgG1a, Fc variant S252Y, Q311L (antibody, part only; not given: anti-NGF variable domains, not shown: another chain or arm of the molecule; small tags and cut ends)
Fc: B1 Fc with S22Y, R24S, Q81L, Y206S

Kd [1]: 0.0614 µM
koff [1]: 0.0514 s⁻¹
kon [1]: 837000 M⁻¹ s⁻¹
B8: anti-NGF feline IgG1a, Fc variant I377Y (antibody, part only; not given: anti-NGF variable domains, not shown: another chain or arm of the molecule; small tags and cut ends)
Fc: B1 Fc with R24S, I147Y, Y206S

Kd [1]: 0.171 µM
koff [1]: 0.0602 s⁻¹
kon [1]: 352000 M⁻¹ s⁻¹
B9: anti-NGF feline IgG1a, Fc variant S426H (antibody, part only; not given: anti-NGF variable domains, not shown: another chain or arm of the molecule; small tags and cut ends)
Fc: B1 Fc with R24S, S198H, Y206S

Kd [1]: 0.159 µM
koff [1]: 0.0618 s⁻¹
kon [1]: 389000 M⁻¹ s⁻¹
B10: anti-NGF feline IgG1a, Fc variant S428H (antibody, part only; not given: anti-NGF variable domains, light chain, not shown: another chain or arm of the molecule; small tags and cut ends)
Fc: B1 Fc with R24S, S200H, Y206S

Kd [1]: 0.0069 µM
koff [1]: 0.0064 s⁻¹
kon [1]: 926000 M⁻¹ s⁻¹
B11: anti-NGF feline IgG1a, Fc variant S252Y, Q311R (antibody, part only; not given: anti-NGF variable domains, not shown: another chain or arm of the molecule; small tags and cut ends)
Fc: B1 Fc with S22Y, R24S, Q81R, Y206S

Kd [2]: 0.103 µM and 0.102 µM
koff [2]: 0.0265 s⁻¹ and 0.0263 s⁻¹
kon [2]: 257000 M⁻¹ s⁻¹ and 258000 M⁻¹ s⁻¹
B12: feline IgG1a Fc variant S252Y (CH2-CH3) with SASA tag (Fc fusion, part only; not given: SASA tag, not shown: another chain or arm of the molecule; small tags and cut ends)
Fc: B1 Fc with S22Y, R24S, Y206S

Kd [1]: 0.0952 µM
koff [1]: 0.0435 s⁻¹
kon [1]: 457000 M⁻¹ s⁻¹
B13: anti-NGF feline IgG1a, Fc variant R301L (antibody, part only; not given: anti-NGF variable domains, not shown: another chain or arm of the molecule; small tags and cut ends)
Fc: B1 Fc with R24S, R71L, Y206S

Kd [1]: 0.0099 µM
koff [1]: 0.0162 s⁻¹
kon [1]: 1.63e+06 M⁻¹ s⁻¹
B14: anti-NGF feline IgG1a, Fc variant S428L, I383L (antibody, part only; not given: anti-NGF variable domains, light chain, not shown: another chain or arm of the molecule; small tags and cut ends)
Fc: B1 Fc with R24S, I153L, S200L, Y206S

Kd [1]: 0.107 µM
koff [1]: 0.0557 s⁻¹
kon [1]: 521000 M⁻¹ s⁻¹
B15: anti-NGF feline IgG1a, Fc variant S254K (antibody, part only; not given: Anti-NGF variable domains, not shown: another chain or arm of the molecule; small tags and cut ends)
Fc: B1 Fc with R24K, Y206S

Kd [1]: 0.008 µM
koff [1]: 0.00973 s⁻¹
kon [1]: 1.22e+06 M⁻¹ s⁻¹
B16: anti-NGF feline IgG1a, Fc variant S428L, E380D, S434R (antibody, part only; not given: Anti-NGF variable domains, not shown: another chain or arm of the molecule; small tags and cut ends)
Fc: B1 Fc with R24S, E150D, S200L, Y206R

Kd [1]: 0.0245 µM
koff [1]: 0.0324 s⁻¹
kon [1]: 1.33e+06 M⁻¹ s⁻¹
B17: anti-NGF feline IgG1a, Fc variant R392E (antibody, part only; not given: anti-NGF variable domains, light chain, not shown: another chain or arm of the molecule; small tags and cut ends)
Fc: B1 Fc with R24S, R164E, Y206S

Kd [1]: 0.0473 µM
koff [1]: 0.0283 s⁻¹
kon [1]: 598000 M⁻¹ s⁻¹
B18: anti-NGF feline IgG1a, Fc variant T286E, S428H (antibody, part only; not given: Anti-NGF variable domains, not shown: another chain or arm of the molecule; small tags and cut ends)
Fc: B1 Fc with R24S, T56E, S200H, Y206S

Kd [1]: 0.0934 µM
koff [1]: 0.0457 s⁻¹
kon [1]: 489000 M⁻¹ s⁻¹
B19: anti-NGF feline IgG1a, Fc variant T286E (antibody, part only; not given: anti-NGF variable domains, light chain, not shown: another chain or arm of the molecule; small tags and cut ends)
Fc: B1 Fc with R24S, T56E, Y206S

Kd [1]: 0.0107 µM
koff [1]: 0.00997 s⁻¹
kon [1]: 931000 M⁻¹ s⁻¹
B20: anti-NGF feline IgG1a, Fc variant S290V, R334D (antibody, part only; not given: anti-NGF variable domains, light chain, not shown: another chain or arm of the molecule; small tags and cut ends)
Fc: B1 Fc with R24S, S60V, R104D, Y206S

Kd [1]: 0.146 µM
koff [1]: 0.0665 s⁻¹
kon [1]: 455000 M⁻¹ s⁻¹
B21: anti-NGF feline IgG1a, Fc variant E293H (antibody, part only; not given: anti-NGF variable domains, light chain, not shown: another chain or arm of the molecule; small tags and cut ends)
Fc: B1 Fc with R24S, E63H, Y206S

Kd [1]: 0.0974 µM
koff [1]: 0.0389 s⁻¹
kon [1]: 400000 M⁻¹ s⁻¹
B22: anti-NGF feline IgG1a, Fc variant T286D (antibody, part only; not given: anti-NGF variable domains, not shown: another chain or arm of the molecule; small tags and cut ends)
Fc: B1 Fc with R24S, T56D, Y206S

Kd [1]: 0.115 µM
koff [1]: 0.0622 s⁻¹
kon [1]: 542000 M⁻¹ s⁻¹
B23: anti-NGF feline IgG1a, Fc variant S426L, T289H (antibody, part only; not given: Anti-NGF variable domains, not shown: another chain or arm of the molecule; small tags and cut ends)
Fc: B1 Fc with R24S, T59H, S198L, Y206S

Kd [1]: 0.127 µM
koff [1]: 0.045 s⁻¹
kon [1]: 353000 M⁻¹ s⁻¹
B24: anti-NGF feline IgG1a, Fc variant L309V (antibody, part only; not given: anti-NGF variable domains, light chain, not shown: another chain or arm of the molecule; small tags and cut ends)
Fc: B1 Fc with R24S, L79V, Y206S
